Target: BoNT/A toxoid (formaldehyde-inactivated botulinum neurotoxin type A, 150 kDa) (UniProt P0DPI1 2-1296)
Assay: […]

Sequence of BoNT/A toxoid (formaldehyde-inactivated botulinum neurotoxin type A, 150 kDa) (P0DPI1 2-1296): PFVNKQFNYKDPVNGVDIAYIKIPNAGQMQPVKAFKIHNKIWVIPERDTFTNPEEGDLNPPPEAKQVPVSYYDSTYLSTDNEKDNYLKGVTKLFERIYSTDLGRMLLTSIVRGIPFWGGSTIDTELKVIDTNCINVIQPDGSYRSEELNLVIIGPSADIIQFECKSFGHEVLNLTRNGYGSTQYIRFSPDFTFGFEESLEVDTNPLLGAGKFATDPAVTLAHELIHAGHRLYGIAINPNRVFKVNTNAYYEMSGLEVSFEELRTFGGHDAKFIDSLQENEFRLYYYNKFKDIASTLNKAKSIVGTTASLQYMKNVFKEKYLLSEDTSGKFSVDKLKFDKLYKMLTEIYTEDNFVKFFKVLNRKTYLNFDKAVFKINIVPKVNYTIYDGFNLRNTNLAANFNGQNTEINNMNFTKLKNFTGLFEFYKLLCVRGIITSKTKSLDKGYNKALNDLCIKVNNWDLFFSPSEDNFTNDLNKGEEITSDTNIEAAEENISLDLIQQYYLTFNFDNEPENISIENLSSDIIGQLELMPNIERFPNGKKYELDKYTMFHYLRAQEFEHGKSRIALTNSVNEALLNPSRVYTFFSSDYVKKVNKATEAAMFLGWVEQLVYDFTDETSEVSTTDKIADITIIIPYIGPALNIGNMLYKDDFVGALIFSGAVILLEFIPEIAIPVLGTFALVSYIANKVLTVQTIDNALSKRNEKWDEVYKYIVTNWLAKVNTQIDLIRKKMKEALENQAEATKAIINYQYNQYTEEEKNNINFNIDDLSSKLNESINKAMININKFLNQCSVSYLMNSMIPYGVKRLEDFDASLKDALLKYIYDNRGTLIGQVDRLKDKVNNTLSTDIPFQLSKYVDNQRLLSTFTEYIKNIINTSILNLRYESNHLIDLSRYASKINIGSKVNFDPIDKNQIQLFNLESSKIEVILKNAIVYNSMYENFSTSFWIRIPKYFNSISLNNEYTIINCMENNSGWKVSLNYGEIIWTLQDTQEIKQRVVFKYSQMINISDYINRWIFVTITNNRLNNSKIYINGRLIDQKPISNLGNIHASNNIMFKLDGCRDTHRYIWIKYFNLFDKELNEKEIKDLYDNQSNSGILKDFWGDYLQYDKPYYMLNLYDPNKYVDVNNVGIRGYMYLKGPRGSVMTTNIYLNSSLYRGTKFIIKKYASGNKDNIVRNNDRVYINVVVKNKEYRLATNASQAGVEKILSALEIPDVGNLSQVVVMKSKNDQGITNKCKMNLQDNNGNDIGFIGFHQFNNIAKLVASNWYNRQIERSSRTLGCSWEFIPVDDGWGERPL

B1: BoNT/A aptamer (76 nt) (ssDNA)
DNA: ATACCAGCTTATTCAATTGACATGACTGGGATTTTTGGCGAAATCGAAGGAAGCGGAGAGATAGTAAGTGCAATCT
  binding signal: ~3.8 signal-to-background ratio

From PMC3210382
